# Measured values reported in ChEMBL document CHEMBL1212722, “Designer enzymes for glycosphingolipid synthesis by directed evolution” (Nat Chem Biol, 2009).
# Legend:
# [1] = Inhibition of Rhodococcus sp. M777 Endoglycoceramidase 2 containing wild type sequence E351S
# [2] = substrate: CCCCCCCCCCCCC/C=C/[C@@H](O)[C@@H](N)CO; assay: (§1) Ratio of Kcat to Km of Activity of Rhodococcus sp. M777 Endoglycoceramidase 2 A153T D314Y mutant
# [3] = substrate: CC(=O)N[C@H]1[C@H](O[C@@H]2[C@H](O[C@]3(C(=O)O)C[C@H](O)[C@@H](NC(C)=O)[C@H]([C@@H](O)[C@@H](O)CO)O3)[C@@H](O)[C@H](O[C@H]3[C@H](O)[C@@H](O)[C@@H](F)O[C@@H]3CO)O[C@@H]2CO)O[C@H](CO)[C@H](O)[C@@H]1O[C@@H]1O[C@H](CO)[C@H](O)[C@H](O)[C@H]1O; assay: as §1
# [4] = substrate: CCCCCCCCCCCCC/C=C/[C@@H](O)[C@@H](N)CO; assay: (§2) Activity of Rhodococcus sp. M777 Endoglycoceramidase 2 A153T D314Y mutant
# [5] = substrate: CC(=O)N[C@H]1[C@H](O[C@@H]2[C@H](O[C@]3(C(=O)O)C[C@H](O)[C@@H](NC(C)=O)[C@H]([C@@H](O)[C@@H](O)CO)O3)[C@@H](O)[C@H](O[C@H]3[C@H](O)[C@@H](O)[C@@H](F)O[C@@H]3CO)O[C@@H]2CO)O[C@H](CO)[C@H](O)[C@@H]1O[C@@H]1O[C@H](CO)[C@H](O)[C@H](O)[C@H]1O; assay: as §2
# [6] = substrate: CCCCCCCCCCCCC/C=C/[C@@H](O)[C@@H](N)CO; assay: (§3) Activity of Rhodococcus sp. M777 Endoglycoceramidase 2 A153T D314Y R177H mutant
# [7] = substrate: CC(=O)N[C@H]1[C@H](O[C@@H]2[C@H](O[C@]3(C(=O)O)C[C@H](O)[C@@H](NC(C)=O)[C@H]([C@@H](O)[C@@H](O)CO)O3)[C@@H](O)[C@H](O[C@H]3[C@H](O)[C@@H](O)[C@@H](F)O[C@@H]3CO)O[C@@H]2CO)O[C@H](CO)[C@H](O)[C@@H]1O[C@@H]1O[C@H](CO)[C@H](O)[C@H](O)[C@H]1O; assay: as §3
# [8] = substrate: CCCCCCCCCCCCC/C=C/[C@@H](O)[C@@H](N)CO; assay: (§4) Ratio of Kcat to Km of Activity of Rhodococcus sp. M777 Endoglycoceramidase 2 A153T D314Y R177H mutant
# [9] = substrate: CC(=O)N[C@H]1[C@H](O[C@@H]2[C@H](O[C@]3(C(=O)O)C[C@H](O)[C@@H](NC(C)=O)[C@H]([C@@H](O)[C@@H](O)CO)O3)[C@@H](O)[C@H](O[C@H]3[C@H](O)[C@@H](O)[C@@H](F)O[C@@H]3CO)O[C@@H]2CO)O[C@H](CO)[C@H](O)[C@@H]1O[C@@H]1O[C@H](CO)[C@H](O)[C@H](O)[C@H]1O; assay: as §4
molecule,measurement,setting,value
CCCCCCCCCCCCCC[C@@H](O)[C@@H](O)[C@@H](N)CO [PHYTOSPHINGOSINE],Ki,[1],850 µM
"Endoglycoceramidase II (Rhodococcus sp), A0ACD6B832 A153T,D314Y (protein) MRRTRLVSLIVTGSLVFGGGVAAAQSSLAASGSGSGSGTALTPSYLKDDDGRSLILRGFNTASSAKSAPDGMPQFTEADLAREYADMGTNFVRFLISWRSVEPAPGVYDQQYLDRVEDRVGWYAERGYKVMLDMHQDVYSGAITPEGNSGNGTGAIGNGAPAWATYMDGLPVEPQPRWELYYIQPGVMRAFDNFWNTTGKHPELVEHYAKAWRAVADRFADNDAVVAYDLMNEPFGGSLQGPAFEAGPLAAMYQRTTDAIRQVDQDTWVCVAPQAIGVNQGLPSGLTKIDDPRAGQQRIAYCPHLYPLPLDIGYGHEGLARTLTDVTIDAWRANTAHTARVLGDVPIILGEFGLDTTLPGARDYIERVYGTAREMGAGVSYWSSDPGPWGPYLPDGTQTLLVDTLNKPYPRAVAGTPTEWSSTSDRLQLTIEPDAAITAPTEIYLPEAGFPGDVHVEGADVVGWDRQSRLLTVRTPADSGNVTVTVTPAA",kcat/Km,[2],407 M⁻¹ s⁻¹
same,kcat/Km,[3],1110 M⁻¹ s⁻¹
same,Km,[4],1600 µM
same,kcat,[4],0.64 s⁻¹
same,Km,[5],270 µM
same,kcat,[5],0.3 s⁻¹
"Endoglycoceramidase II (Rhodococcus sp), A0ACD6B832 A153T,D314Y,R177H (protein) MRRTRLVSLIVTGSLVFGGGVAAAQSSLAASGSGSGSGTALTPSYLKDDDGRSLILRGFNTASSAKSAPDGMPQFTEADLAREYADMGTNFVRFLISWRSVEPAPGVYDQQYLDRVEDRVGWYAERGYKVMLDMHQDVYSGAITPEGNSGNGTGAIGNGAPAWATYMDGLPVEPQPHWELYYIQPGVMRAFDNFWNTTGKHPELVEHYAKAWRAVADRFADNDAVVAYDLMNEPFGGSLQGPAFEAGPLAAMYQRTTDAIRQVDQDTWVCVAPQAIGVNQGLPSGLTKIDDPRAGQQRIAYCPHLYPLPLDIGYGHEGLARTLTDVTIDAWRANTAHTARVLGDVPIILGEFGLDTTLPGARDYIERVYGTAREMGAGVSYWSSDPGPWGPYLPDGTQTLLVDTLNKPYPRAVAGTPTEWSSTSDRLQLTIEPDAAITAPTEIYLPEAGFPGDVHVEGADVVGWDRQSRLLTVRTPADSGNVTVTVTPAA",Km,[6],490 µM
same,kcat,[6],0.24 s⁻¹
same,Km,[7],800 µM
same,kcat,[7],0.28 s⁻¹
same,kcat/Km,[8],490 M⁻¹ s⁻¹
same,kcat/Km,[9],350 M⁻¹ s⁻¹
